Ends that are not written are not given here.
Assays:
[1] = target: HLA-A*11:01 (fluorescence polarisation peptide-binding assay); assay: fluorescence polarisation; competitive binding assay of synthetic peptide with HLA-A*11:01 (Pure Protein L.L.C. method, ref. 45); IC50 <5,000 nM categorised as high affinity
HLA-A*11:01 = target: T1, HLA-A*11:01 (Homo sapiens, UniProt P04439, A114D/D185E/E176A/F33Y/L180Q/S129P/T187R); assay: Fluorescence polarization competitive peptide-binding assay
T1 construct: purchased Pure Protein L.L.C
Description: Figure 1 Direct epitope discovery of WNV epitope GTL9. (A) RP-HPLC profile of HLA-A*11:01 peptides from uninfected (blue) and WNV-infected (red) cells. (B) MS ion spectra of HPLC fraction 50 from uninfected (black) and infected (red) cells. MS data were recorded for 300 scans. (C) Overlay of the MS/MS fragmentation pattern of ion 466.7 in the infected HPLC fraction 50 (identified as the GTL9 peptide; red) with the MS/MS fragmentation pattern for the GTL9 synthetic peptide (black). (D) Florescence polarization competitive binding assay with the GTL9 synthetic peptide and HLA-A*11:01.
These six WNV peptides fit the reported A*11:01-binding motif. […] The fluorescence polarization assay used to assess A*11:01 binding categorizes peptides with IC50 values <5,000 nM as high affinity. In summary, six WNV ligands were discovered by direct elution from A*11:01, these ligands were sequenced by tandem MS, their sequence was confirmed with synthetic ligands, they bound well to A*11:01, they were of traditional length, and these ligands were consistent with the previously reported A*11:01 motif.
MS ion maps were generated for HPLC fractions containing peptides. Fractions were ionized by using nanoelectrospray capillaries (Proxeon) into a QSTAR elite (Applied Biosystems) electrospray quadrupole time-of-flight mass spectrometer. Peptide sequences were determined manually by using the MASCOT software package (Matrix Science). Peptide binding to HLA-A*11:01 was determined using the florescence polarization method (Pure Protein L.L.C.).

| Substance | IC50 [1] [µM] | IC50 (HLA-A*11:01) [µM] |
| --- | --- | --- |
| KSY9 synthetic peptide (WNV NS3 1894-1902) | 7.88 | – |
| AVV9 synthetic peptide (WNV NS4B 2458-2466) | 2.25 | – |
| KSYETEYPK [KSY9] | – | 7.89 |
| AVVVNPSVK [AVV9] | – | 2.25 |
| KNM9 synthetic peptide (WNV NS4B 2519-2527) | 24.3 | – |
| AIIEVDRSAAK [AII11] | – | 11.2 |
| GTL9 synthetic peptide (WNV capsid 89-97) | 1.13 | – |
| KNMEKPGLK [KNM9] | – | 24.3 |
| GTLTSAINR [GTL9] | – | 1.13 |
| RVL9 synthetic peptide (WNV capsid 23-31) | 0.334 | – |
| RVLSLIGLK [RVL9] | – | 0.334 |
| AII11 synthetic peptide (WNV NS5 2559-2569) | 11.2 | – |

From publication PMC3677933, “Identification of Class I HLA T Cell Control Epitopes for West Nile Virus” (PLoS ONE, 2013)
